From publication PMC4843017 (2016)
Like-named read-outs stand apart in the source and are kept apart here.

Experiments:
[1] = target: T1, taxol-stabilized microtubules (α-/β-tubulin) (bovine, UniProt P81947 1-451; Q6B856 1-445)
[2] = target: T1, taxol-stabilized microtubules …; remark: listed apart in the source

T1 sequence (P81947 whole entry, chain 1 of 2): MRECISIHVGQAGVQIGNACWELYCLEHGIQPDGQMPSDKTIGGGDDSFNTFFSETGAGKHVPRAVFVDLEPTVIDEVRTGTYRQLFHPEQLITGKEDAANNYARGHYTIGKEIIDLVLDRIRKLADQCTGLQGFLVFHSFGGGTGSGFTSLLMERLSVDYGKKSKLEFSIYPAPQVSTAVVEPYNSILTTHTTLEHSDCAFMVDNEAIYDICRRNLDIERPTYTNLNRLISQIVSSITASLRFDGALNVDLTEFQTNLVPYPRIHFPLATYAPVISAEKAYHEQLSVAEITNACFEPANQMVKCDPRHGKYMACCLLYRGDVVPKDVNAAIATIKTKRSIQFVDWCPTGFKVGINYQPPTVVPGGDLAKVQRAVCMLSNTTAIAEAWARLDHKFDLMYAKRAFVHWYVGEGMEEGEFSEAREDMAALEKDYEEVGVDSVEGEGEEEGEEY
T1 sequence (Q6B856 whole entry, chain 2 of 2): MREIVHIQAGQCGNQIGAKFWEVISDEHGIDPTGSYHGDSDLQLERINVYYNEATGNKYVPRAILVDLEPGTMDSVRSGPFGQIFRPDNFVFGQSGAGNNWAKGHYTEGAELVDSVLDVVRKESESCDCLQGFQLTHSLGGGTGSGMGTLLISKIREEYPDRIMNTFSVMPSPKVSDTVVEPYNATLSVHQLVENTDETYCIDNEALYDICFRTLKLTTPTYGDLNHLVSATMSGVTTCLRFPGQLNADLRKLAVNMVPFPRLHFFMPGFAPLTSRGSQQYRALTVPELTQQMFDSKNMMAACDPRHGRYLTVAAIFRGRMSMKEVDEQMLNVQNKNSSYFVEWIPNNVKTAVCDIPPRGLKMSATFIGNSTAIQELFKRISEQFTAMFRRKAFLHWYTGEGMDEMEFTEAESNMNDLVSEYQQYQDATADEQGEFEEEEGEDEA

Binder	Kd [1]	Kd [2]
SKAP^103–225 (domain or fragment) TQTRATSKSLLPVRSKEVDVSKQLHSGGPENDVTKITKLRRENGQMKATDTATRRNVRKGYKPLSKQKSEEELKDKNQLLEAVNKQLHQKLTETQGELKDLTQKVELLEKFRDNCLAILESKG	1100 nM	
SKAP^159–316 (expressed alone in E. coli) (domain or fragment) VRKGYKPLSKQKSEEELKDKNQLLEAVNKQLHQKLTETQGELKDLTQKVELLEKFRDNCLAILESKGLDPALGSETLASRQESTTDHMDSMLLLETLQEELKLFNETAKKQMEELQALKVKLEMKEERVRFLEQQTLCNNQVNDLTTALKEMEQLLEM		1620 nM
